In patent publication US20240189392A1 (AMBRX, published 2024):

Key:
Assay in all cases: cell-based or functional assay
[1] = target: T1, human RXFP1 (human, UniProt Q9HBX9 1-757)
T1 sequence (looked up): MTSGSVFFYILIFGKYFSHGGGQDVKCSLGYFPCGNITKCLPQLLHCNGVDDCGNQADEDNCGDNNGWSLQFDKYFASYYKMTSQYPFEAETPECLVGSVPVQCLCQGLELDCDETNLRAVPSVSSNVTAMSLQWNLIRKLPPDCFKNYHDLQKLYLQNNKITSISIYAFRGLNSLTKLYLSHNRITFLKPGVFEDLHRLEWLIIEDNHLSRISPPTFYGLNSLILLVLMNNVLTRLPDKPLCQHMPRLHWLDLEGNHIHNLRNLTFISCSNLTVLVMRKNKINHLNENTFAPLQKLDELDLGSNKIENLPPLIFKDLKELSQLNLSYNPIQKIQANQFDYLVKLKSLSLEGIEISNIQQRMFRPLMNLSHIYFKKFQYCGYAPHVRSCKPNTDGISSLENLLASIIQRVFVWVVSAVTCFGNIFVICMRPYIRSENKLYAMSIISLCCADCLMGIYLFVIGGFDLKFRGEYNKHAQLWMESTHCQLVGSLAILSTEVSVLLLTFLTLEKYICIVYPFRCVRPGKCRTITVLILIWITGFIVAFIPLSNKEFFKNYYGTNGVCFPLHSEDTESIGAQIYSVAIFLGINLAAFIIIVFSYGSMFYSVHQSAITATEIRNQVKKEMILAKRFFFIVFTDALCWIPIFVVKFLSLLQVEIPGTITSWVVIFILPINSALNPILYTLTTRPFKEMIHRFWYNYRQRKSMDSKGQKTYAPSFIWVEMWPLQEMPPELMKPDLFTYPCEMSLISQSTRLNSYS

[2] = target: T1, human RXFP1; remark: listed apart in the source
[3] = target: T2, rat RXFP1 (rat, UniProt Q6R6I6 1-758)
T2 sequence (looked up): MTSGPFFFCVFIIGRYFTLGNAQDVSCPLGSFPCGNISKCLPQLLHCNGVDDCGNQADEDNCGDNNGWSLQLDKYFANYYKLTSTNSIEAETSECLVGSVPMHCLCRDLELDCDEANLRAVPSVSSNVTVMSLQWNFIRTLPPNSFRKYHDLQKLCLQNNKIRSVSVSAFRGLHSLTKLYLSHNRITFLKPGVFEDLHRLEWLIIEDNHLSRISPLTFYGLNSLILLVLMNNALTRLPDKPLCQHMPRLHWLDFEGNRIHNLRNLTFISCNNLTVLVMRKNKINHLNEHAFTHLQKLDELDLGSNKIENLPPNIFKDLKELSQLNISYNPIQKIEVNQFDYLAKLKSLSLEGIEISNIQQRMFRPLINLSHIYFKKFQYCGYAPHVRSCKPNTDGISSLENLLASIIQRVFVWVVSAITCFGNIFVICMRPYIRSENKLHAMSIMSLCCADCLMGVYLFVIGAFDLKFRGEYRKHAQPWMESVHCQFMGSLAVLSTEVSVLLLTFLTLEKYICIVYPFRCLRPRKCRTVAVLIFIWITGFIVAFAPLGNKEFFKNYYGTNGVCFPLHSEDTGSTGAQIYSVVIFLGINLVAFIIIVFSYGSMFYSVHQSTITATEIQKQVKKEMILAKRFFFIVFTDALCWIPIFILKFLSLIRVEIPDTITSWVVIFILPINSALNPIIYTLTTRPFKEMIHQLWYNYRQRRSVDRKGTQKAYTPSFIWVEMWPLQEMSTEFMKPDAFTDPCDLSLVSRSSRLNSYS

B1: RLX-A-AQ1-20KPEG (ligand)
chain 1: XLYSALANKCCHVGCTKRSLARFC
chain 2: ASWMEEVIKLCGRELVRAQIAICGMSTWS
modifications: pACF (para-acetylphenylalanine) at position 1 of the A chain, linked to a 20 kDA PEG via an oxime linkage
[1]
  Functional Assay Raw EC50 Values [ng/mL]; cAMP increase in THP-1 cells, 11/5/2010: 38 ng/mL
[2]
  Potency Ratio (RLX-A-AQ1-20KPEG/WT-RLX), cAMP assay, THP-1 cells: 26 fold
  Potency Ratio (RLX-A-AQ1-20KPEG/WT-RLX), cAMP assay, hRXFP1/CHO-K1 cells: 32 fold
  RLX-A-AQ1-20KPEG Potency Ratio (hRXFP 1-1.0), cAMP assay: 1 ratio
  cAMP Assay EC50 (nM), THP-1 cells: 7.6 nM
  cAMP Assay EC50 (nM), hRXFP1/CHO-K1 cells: 3.2 nM
[3]
  Potency Ratio (RLX-A-AQ1-20KPEG/WT-RLX), cAMP assay, rat RXFP1/CHO-K1 cells: 32 fold
  RLX-A-AQ1-20KPEG Potency Ratio (hRXFP 1-1.0), cAMP assay: 0.34 ratio
  cAMP Assay EC50 (nM), rat RXFP1/CHO-K1 cells: 1.1 nM
